We go through one substance from paper PMC2112662.

The experiment concerns the target type IV (basement membrane) collagen of Np cells (Peak II) (mouse (endogenous in Np fibrosarcoma cells)). As to the kind of experiment: radioligand binding.

Consider “laminin (from the EHS (Engelbreth-Holm-Swarm) sarcoma) (from UniProt P19137 25-3083; P02469 22-1786; P02468 34-1607) (complex)”, for which the laminin specifically bound (cpm) at 50 ng 125I-laminin added stood at 0 cpm and the laminin specifically bound (cpm) at 500 ng 125I-laminin added stood at 9250 cpm.
